Here are results for two sequences from patent US20060078880.

pKd: −log10 of the molar value.

Data set [1] has as its system C7.GAT C7 finger-3 helix RSDERKR replaced by TSGNLVR (SEQ 51) (synthetic). In words: EMSA. Conditions: [none]; gel mobility shift; exact target oligo not stated. Background: Mobility shift assays separate free from complexed probe on a gel.
Data set [2] relates to C7.GCG (C7) none; finger-3 helix RSDERKR (SEQ 50) (synthetic). In words: EMSA. Conditions: CITED Segal 1999, exact target oligo not stated; cited from earlier work.

As a reminder, the pKd is the negative decadic logarithm of the Kd, by convention in mol/L. For “GATTGGGCG (double strand) [C7.GAT target, finger-2 subsite TGG]”, the pKd in data set [1] is 6.40.
In the case of “GCGTGGGCG (double strand) [C7 target, finger-2 subsite TGG]”, the pKd in data set [2] was 9.30.
